The source of these data is the supplement of paper PMC6379048.

Assay in all cases: EC50 of free RNA motif oligo competing protein binding to immobilised probe
For data set [1], the target named is T1, SKIV2L2 (UniProt P42285).
T1 sequence: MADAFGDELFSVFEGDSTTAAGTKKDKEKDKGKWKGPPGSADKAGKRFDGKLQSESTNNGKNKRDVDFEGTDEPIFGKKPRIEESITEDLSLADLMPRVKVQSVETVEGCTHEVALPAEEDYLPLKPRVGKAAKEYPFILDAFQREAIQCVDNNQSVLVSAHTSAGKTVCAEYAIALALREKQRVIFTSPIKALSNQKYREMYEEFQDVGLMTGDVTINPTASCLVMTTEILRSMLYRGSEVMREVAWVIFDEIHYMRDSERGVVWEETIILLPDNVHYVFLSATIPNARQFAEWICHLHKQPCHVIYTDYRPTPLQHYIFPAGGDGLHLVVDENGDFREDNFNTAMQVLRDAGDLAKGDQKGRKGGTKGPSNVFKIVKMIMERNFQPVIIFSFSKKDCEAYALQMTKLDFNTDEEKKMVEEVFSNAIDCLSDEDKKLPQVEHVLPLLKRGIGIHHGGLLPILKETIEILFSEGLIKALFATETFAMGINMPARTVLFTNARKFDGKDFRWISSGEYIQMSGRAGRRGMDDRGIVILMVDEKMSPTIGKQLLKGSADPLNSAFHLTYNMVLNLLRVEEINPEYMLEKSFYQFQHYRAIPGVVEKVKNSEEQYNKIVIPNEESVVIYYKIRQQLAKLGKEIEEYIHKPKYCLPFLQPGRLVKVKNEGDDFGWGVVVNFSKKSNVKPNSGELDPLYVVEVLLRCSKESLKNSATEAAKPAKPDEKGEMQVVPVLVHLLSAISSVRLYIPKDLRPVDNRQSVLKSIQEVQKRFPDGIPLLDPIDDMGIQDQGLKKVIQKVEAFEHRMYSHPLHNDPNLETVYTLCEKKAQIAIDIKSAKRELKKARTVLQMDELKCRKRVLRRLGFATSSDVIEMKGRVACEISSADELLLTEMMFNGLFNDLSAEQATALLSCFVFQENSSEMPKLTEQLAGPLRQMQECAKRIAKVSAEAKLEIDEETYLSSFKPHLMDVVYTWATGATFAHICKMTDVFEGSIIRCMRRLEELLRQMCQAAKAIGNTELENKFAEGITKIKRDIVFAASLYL
On the procedure: (§1)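 Competition-binding assay: HEK293-FT cell lysate (2.5 mg protein) pre-incubated 1 h at 4°C with free motif-containing RNA oligos (0 to 30 µM, 12 doses), then pulled down with the same 5'-amino-C6 RNA oligos immobilised on NHS-Sepharose beads (30 min, 4°C). Bound proteins were quantified by label-free LC-MS/MS and normalised to the water control. EC50 came from a four-parameter log-logistic fit; Kd = EC50 x depletion factor. Random/reversed control probes are dropped.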

The target of data set [2] is T2, ZCCHC8 (UniProt Q6NZY4).
T2 sequence: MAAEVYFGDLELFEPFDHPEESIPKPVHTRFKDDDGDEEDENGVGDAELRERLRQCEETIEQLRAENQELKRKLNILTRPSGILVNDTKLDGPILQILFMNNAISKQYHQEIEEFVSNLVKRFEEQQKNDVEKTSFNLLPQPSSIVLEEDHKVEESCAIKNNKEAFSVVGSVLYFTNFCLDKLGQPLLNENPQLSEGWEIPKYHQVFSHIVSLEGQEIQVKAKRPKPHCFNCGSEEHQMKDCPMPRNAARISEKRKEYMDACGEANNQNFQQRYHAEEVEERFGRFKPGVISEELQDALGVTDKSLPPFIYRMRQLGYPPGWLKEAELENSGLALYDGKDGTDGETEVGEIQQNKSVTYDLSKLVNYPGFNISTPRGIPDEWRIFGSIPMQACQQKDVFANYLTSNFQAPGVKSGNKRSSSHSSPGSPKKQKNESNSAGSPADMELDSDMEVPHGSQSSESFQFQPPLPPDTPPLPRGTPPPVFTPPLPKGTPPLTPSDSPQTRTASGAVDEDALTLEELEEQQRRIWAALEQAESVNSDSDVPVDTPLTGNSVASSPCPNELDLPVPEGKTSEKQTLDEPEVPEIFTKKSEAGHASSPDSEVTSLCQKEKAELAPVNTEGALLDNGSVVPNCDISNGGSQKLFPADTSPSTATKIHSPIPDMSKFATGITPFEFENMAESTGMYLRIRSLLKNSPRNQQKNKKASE
The procedure:
as §1

For data set [3], the target named is T3, LIN28B (UniProt Q6ZN17).
T3 sequence: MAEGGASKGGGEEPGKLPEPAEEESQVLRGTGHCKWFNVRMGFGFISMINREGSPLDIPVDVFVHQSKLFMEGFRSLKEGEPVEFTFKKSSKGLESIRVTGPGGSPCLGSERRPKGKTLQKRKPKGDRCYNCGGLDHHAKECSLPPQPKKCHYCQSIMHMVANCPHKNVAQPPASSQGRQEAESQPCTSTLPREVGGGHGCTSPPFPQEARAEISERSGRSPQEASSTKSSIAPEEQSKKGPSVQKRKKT
On the procedure: as §1

In data set [4] the target is T4, RTCA (UniProt O00442).
T4 sequence: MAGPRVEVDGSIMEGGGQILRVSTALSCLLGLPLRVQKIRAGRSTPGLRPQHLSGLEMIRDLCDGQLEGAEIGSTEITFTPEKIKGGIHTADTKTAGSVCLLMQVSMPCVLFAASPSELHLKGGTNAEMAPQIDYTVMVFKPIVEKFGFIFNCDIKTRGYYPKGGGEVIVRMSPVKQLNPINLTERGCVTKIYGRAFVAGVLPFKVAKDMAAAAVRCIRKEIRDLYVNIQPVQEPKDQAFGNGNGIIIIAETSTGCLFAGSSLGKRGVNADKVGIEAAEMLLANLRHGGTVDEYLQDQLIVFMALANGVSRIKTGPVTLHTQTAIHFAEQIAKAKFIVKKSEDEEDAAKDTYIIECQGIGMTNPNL
On the procedure: as §1

The target in data set [5] is DHX15 (UniProt O43143). On the procedure:
as §1

DHX15, sequence (O43143 whole entry): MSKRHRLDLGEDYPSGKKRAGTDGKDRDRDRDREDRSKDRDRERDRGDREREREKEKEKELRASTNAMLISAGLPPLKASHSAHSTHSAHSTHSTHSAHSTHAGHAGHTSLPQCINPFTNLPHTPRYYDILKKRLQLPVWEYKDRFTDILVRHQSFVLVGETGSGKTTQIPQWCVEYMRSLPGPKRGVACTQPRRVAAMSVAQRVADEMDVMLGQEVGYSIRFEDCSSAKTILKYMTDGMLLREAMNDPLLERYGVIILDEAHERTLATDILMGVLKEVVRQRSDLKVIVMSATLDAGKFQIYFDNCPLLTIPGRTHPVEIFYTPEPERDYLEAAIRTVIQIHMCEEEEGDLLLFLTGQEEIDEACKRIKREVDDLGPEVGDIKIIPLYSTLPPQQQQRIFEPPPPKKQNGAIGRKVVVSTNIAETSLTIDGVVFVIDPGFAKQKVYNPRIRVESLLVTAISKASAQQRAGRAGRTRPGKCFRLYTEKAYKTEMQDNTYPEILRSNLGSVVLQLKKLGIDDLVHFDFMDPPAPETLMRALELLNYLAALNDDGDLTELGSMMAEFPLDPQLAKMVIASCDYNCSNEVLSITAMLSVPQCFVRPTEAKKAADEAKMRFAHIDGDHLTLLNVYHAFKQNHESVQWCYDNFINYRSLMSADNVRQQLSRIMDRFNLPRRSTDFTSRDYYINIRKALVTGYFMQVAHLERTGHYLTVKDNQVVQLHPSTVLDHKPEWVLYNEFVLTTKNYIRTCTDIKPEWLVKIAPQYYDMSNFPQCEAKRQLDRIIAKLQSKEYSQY

With AAUAAA, the EC50 turned out to be 2880 nM in data set [1]; 2460 nM in data set [2]; 2920 nM in data set [3]; 566 nM in data set [4]; 2150 nM in data set [5].

With CUGUCCU, the EC50 was 3470 nM in data set [1]; 3110 nM in data set [2]; 2300 nM in data set [3]; 1940 nM in data set [4]; 757 nM in data set [5].

As to UAUUUAU, the 50% effective concentration (EC50) in data set [1] came to 619 nM; in data set [2], 615 nM; in data set [3], 1470 nM; in data set [4], 381 nM; in data set [5] it was 576 nM.
